Target: T1, MBP-JAZ9-8×His (recombinant, E. coli-expressed) (Arabidopsis, UniProt Q8W4J8 1-267, limits assumed)
T1 construct: procedure cited from Katsir et al. 2008; also called Escherichia coli-expressed JAZ9 protein
T1 sequence: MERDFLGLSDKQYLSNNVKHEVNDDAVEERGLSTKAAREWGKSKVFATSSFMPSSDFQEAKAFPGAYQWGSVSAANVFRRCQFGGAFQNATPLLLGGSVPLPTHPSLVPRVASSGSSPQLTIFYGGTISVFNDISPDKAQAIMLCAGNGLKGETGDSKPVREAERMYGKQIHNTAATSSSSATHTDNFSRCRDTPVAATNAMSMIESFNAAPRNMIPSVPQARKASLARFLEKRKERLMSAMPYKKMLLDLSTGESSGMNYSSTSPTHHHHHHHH
Assay: Ni-resin pull-down of plant-expressed COI1-4×c-Myc with MBP-JAZ9-8×His, COR series, anti-c-Myc immunoblot
Protocol: Pull-down assays were performed with protein extracts from 4-mg pCOI1:COI1WT/A384V-4×c-Myc plants and 25 μg recombinant MBP-JAZ9-8×His. […] Eighty microliters of Ni resin (Invitrogen) were added, followed by an additional 15-min incubation period at 4° C. MBP-JAZ9-8×Hisbound Ni resin was washed three times on microcentrifuge spin columns with 0.25 mL binding buffer at 4° C. MBP-JAZ9-8×His was eluted from the resin with 100 μL of 300 mM imidazole. Proteins bound to MBP-JAZ9-8×His were analyzed by immunoblotting for the presence of COI1WT/A384V-4×c-Myc using anti-cMyc antibody. MBP-JAZ9-8×His recovered by the Ni affinity resin was detected by Coomassie blue staining.

fold higher COR concentration required for robust co-receptor formation, against COI1WT-JAZ9: ~100 fold
B1: COI1A384V-4×c-Myc (plant-expressed) (receptor, not shown: small tags and cut ends)
chain: MEDPDIKRCKLSCVATVDDVIEQVMTYITDPKDRDSASLVCRRWFKIDSETREHVTMALCYTATPDRLSRRFPNLRSLKLKGKPRAAMFNLIPENWGGYVTPWVTEISNNLRQLKSVHFRRMIVSDLDLDRLAKARADDLETLKLDKCSGFTTDGLLSIVTHCRKIKTLLMEESSFSEKDGKWLHELAQHNTSLEVLNFYMTEFAKISPKDLETIARNCRSLVSVKVGDFEILELVGFFKAAANLEEFCGGSLNEDIGMPEKYMNLVFPRKLCRLGLSYMGPNEMPILFPFAAQIRKLDLLYALLETEDHCTLIQKCPNLEVLETRNVIGDRGLEVLAQYCKQLKRLRIERGADEQGMEDEEGLVSQRGLIALAQGCQELEYMVVYVSDITNESLESIGTYLKNLCDFRLVLLDREERITDLPLDNGVRSLLIGCKKLRRFAFYLRQGGLTDLGLSYIGQYSPNVRWMLLGYVGESDEGLMEFSRGCPNLQKLEMRGCCFSERAIAAAVTKLPSLRYLWVQGYRASMTGQDLMQMARPYWNIELIPSRRVPEVNQQGEIREMEHPAHILAYYSLAGQRTDCPTTVRVLKEPI
notes: In protein extracts of transgenic Arabidopsis (coi1-30 background); C-terminal 4×c-Myc tag; also called pCOI1:COI1A384V-4×c-Myc
